B1: MED27 (parent)
chain: YNENVYTEDGKLDIWSKSNYQVFQ

Variants of: B1
Assay: protein stability index of a GFP-peptide fusion (GPS, HEK-293T) (PSI 1-6); higher = more stable
Conditions: c terminus: a fixed tail appended
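Note: lentivirally expressed fusions sorted by FACS into six bins by GFP to DsRed ratio, PSI derived from sequencing read proportions per bin multiplied by bin number.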

Protein stability index of substitutions, site by site:
E8: A 2.33 | M 1.57 | N 2.62 | Q 1.82 | K 1.86 | G 1.64 | H 2.07 | P 1.68 | F 1.69 | V 1.31 | R 1.55 | L 1.92 | S 1.7 | W 1.64 | Y 1.97 | I 1.29 | C 2.18 | D 1.84 | T 1.93
E3: Y 1.64 | C 2.04 | H 1.92 | P 1.31 | D 1.48 | L 1.48 | K 2.31 | T 1.88 | F 1.8 | W 1.44 | S 1.76 | Q 2.17 | M 1.59 | G 2.34 | V 1.69 | N 2.36 | A 1.88 | R 1.41 | I 1.81
K11: F 2.22 | D 3.48 | E 2.93 | C 1.78 | A 2.27
G10: V 1.96 | I 1.93 | A 2.3 | D 2.96 | H 2.61 | K 2.91 | W 1.99 | E 2.65 | N 2.54 | L 2.17 | R 2.21 | P 2.42 | C 1.97 | S 2.23 | T 2.45 | Q 2.5 | Y 1.76 | M 2.73 | F 1.65
Y6: V 3.02 | W 2.04 | N 3 | K 2.34 | A 2.62 | T 2.98 | H 2.95 | R 2.48 | D 3.3 | E 3.17 | I 2.43 | P 2.68 | L 2.38 | G 2.57 | S 3.26 | M 2.17 | F 2.55 | Q 2.76 | C 2.84
N4: P 1.96 | D 2.21 | E 2.73 | L 1.99 | C 2.29 | F 1.93 | Y 1.47 | V 1.89 | W 1.15 | Q 2.53 | G 2.37 | A 2.54 | T 2.21 | S 1.52 | R 2.31 | M 2 | K 1.8 | I 2.04 | H 2.04
T7: R 2.06 | Q 2.48 | M 1.75 | G 2.53 | L 1.8 | C 2.63 | S 1.95 | F 2.13 | N 2.14 | P 2.21 | W 1.07 | Y 2.46 | A 2.21 | H 2.11 | D 2.7 | E 2.96 | I 1.72 | K 2.35 | V 2.05
N2: W 1.69 | Q 2.33 | S 2.02 | Y 2.1 | P 2.09 | T 1.95 | L 1.68 | V 3.18 | R 2.4 | M 2.01
D9: R 1.7 | Y 2.03 | H 1.97 | P 2.03 | W 2.01 | E 2.37 | F 1.76 | V 1.98 | G 1.63 | M 1.69 | Q 1.55 | L 1.77 | I 1.71 | A 1.65 | C 1.64 | N 1.76 | K 2.02 | S 1.96 | T 1.8
V5: R 2.25 | H 2.95 | Q 3.06 | I 2.73 | T 2.67 | C 2.05 | E 3.28 | G 2.71 | W 1.91 | A 2.47 | L 2.21 | P 2.35 | S 2.34 | M 2.1 | F 1.72 | K 2.15 | Y 1.97 | D 3.26 | N 3.01

From the supplement of paper PMC10567573
